Laboratory results from publication PMC13544220, “Glycemic and bodyweight effects of GIPR coding variation reflect differences in surface expression and intrinsic functional impairment” (Science Advances, 2026).

Legend:
[1] = tested on: wild-type and variant SNAP-GIPR; test: Constitutive and agonist-mediated internalization, reversible SNAP-tag labelling, AD293 cells; type: cell-based, human; design: key to Internalisation, Vehicle / Internalisation, +GIP / Internalisation, GIP-only: % internalization: residual fluorescence after Mesna vs pre-Mesna; Surface expression: unit not given here; details: Mean
Summary of the method: (§1)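 Percentage internalization calculated as specific SNAP fluorescence remaining after 10 min Mesna exposure, relative to pre-Mesna signal, imaged in TNE buffer (pH 8.6).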

[2] = tested on: wild-type and variant SNAP-GIPR; test: Constitutive and agonist-mediated internalization, reversible SNAP-tag labelling, INS-1 cells; type: cell-based, human; design: key to Internalisation, GIP-only / Internalisation, Vehicle / Internalisation, +GIP: % internalization: residual fluorescence after Mesna vs pre-Mesna; details: Mean
Summary of the method: as §1

[3] = tested on: wild-type and variant SNAP-GIPR; test: cADDis cAMP imaging in AD293 cells, ensemble, expression-matched and per decile; type: cell-based, human; details: Fig S3F, cADDis, mean;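 note: Ensemble cells as % of IBMX/FSK response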
Summary of the method: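 AD293 cells were transfected with SNAP-GIPR constructs and cotransduced with the cADDis Green Up cAMP sensor, then labeled after 24 h with 500 nM SNAP-Surface Alexa Fluor 647. Per-cell cADDis intensity was tracked at 37°C in KRBH with 6 mM glucose and 0.1% BSA.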

[4] = tested on: wild-type and variant SNAP-GIPR; test: Single-concentration GIP cAMP response by HTRF in AD293 cells; type: cell-based, human; details: Fig S3F, HTRF, mean;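 note: ratio to experiment-wide average response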
Procedure: All variants were tested in parallel on each occasion to control for transfection efficiency differences between experiments.

[5] = tested on: wild-type and variant SNAP-GIPR in Gipr-/- mouse islets; test: Surface SNAP-GIPR expression in pancreatic islets; type: cell-based, human; details: Fig 6B
Procedure: Islets were purified from Gipr^−/− mice as described in the “Islet isolation and culture” section. Islets were transduced with adenoviral wild-type or variant SNAP-tagged GIPR constructs (VectorBuilder) per the manufacturer’s instructions. All variants were tested in parallel on each occasion to control for transduction efficiency. Twenty-four hours posttransduction, whole, intact islets were labeled with SNAP-Surface Alexa Fluor 647 for 15 min at 37°C. Following labeling, the islets were placed in a drop of PBS in the center of a glass-bottom MatTek dish and imaged on a Zeiss LSM 780 inverted confocal microscope fitted with a 63X/1.4 NA oil immersion objective. Receptor surface levels were quantified in Fiji using a macro using full width at half maximum (FWHM) designed by the Facility for Imaging and Light Microscopy (FILM) at Imperial College London and expressed relative to wild-type GIPR. In additional experiments, islets transduced as above and labeled with SNAP-Surface-647 were fixed in 4% paraformaldehyde, permeabilized in 0.5% (v/v) Triton X-100 in PBS (15 min), washed once with PBS and incubated in blocking buffer (PBS and 1% BSA) for 1 hour, and incubated overnight at 4°C in primary antibodies against insulin (1:50; Dako IR002, Agilent Technologies) and glucagon (1:500; G2654, Sigma-Aldrich) in blocking buffer.

[6] = tested on: wild-type and variant SNAP-GIPR in Gipr-/- mouse islets; test: Insulin secretion from Gipr-/- mouse islets transduced with GIPR adenoviruses; type: cell-based; details: Fig 6D, Gipr-/- mouse islets
Procedure: Isolated islets used for insulin secretion assays were treated in 1.5-ml microcentrifuge tubes. Eight-ten islets were used per well with two-three technical replicates per condition. […] At the end of the treatment, supernatants containing the secreted insulin or glucagon were collected, centrifuged at 1000g for 5 min, and transferred to fresh tubes. […] The lysates were sonicated 3× for 10 s in a water bath and centrifuged at 10,000g for 10 min, and the supernatants were collected. The samples were stored at −20°C until the insulin or glucagon concentrations were determined using an Insulin Ultra-Sensitive HTRF Assay kit (62IN2PEG, Revvity) or an HTRF Glucagon Detection Kit (62CGLPEG, Revvity) respectively, according to the manufacturer’s instructions. GraphPad Prism 9.0 was used for the generation of the standard curve and sample concentration extrapolation. The total insulin or glucagon content was calculated by adding the secreted insulin to the insulin content of the lysates, and secretion was reported as the percentage release of total. The percent secretion of islets treated with agonist was normalized to that of islets treated with vehicle and reported as a fold change.

B1: E288G (protein)
chain: RAETGSKGQTAGELYQRWERYRRECQETLAAAEPPSGLACNGSFDMYVCWDYAAPNATARASCPWYLPWHHHVAAGFVLRQCGSDGQWGLWRDHTQCENPEKNEAFLDQRLILERLQVMYTVGYSLSLATLLLALLILSLFRRLHCTRNYIHINLFTSFMLRAAAILSRDRLLPRPGPYLGDQALALWNQALAACRTAQIVTQYCVGANYTWLLVEGVYLHSLLVLVGGSEEGHFRYYLLLGWGAPALFVIPWVIVRYLYENTQCWGRNEVKAIWWIIRTPILMTILINFLIFIRILGILLSKLRTRQMRCRDYRLRLARSTLTLVPLLGVHEVVFAPVTEEQARGALRFAKLGFEIFLSSFQGFLVSVLYCFINKEVQSEIRRGWHHCRLRRSLGEEQRQLPERAFRALPSGSGPGEVPTSRGLSSGTLPGPGNEASRELESYC
With B1 the “+GIP internalisation (100 nM)” value ([1]; Fig 4E, GIP 100 nM) was 0.06598, the “GIP-specific internalisation (100 nM)” value ([1]; Fig 4E, GIP 100 nM) was 0.002144 and the “Constitutive internalisation (100 nM)” value ([1]; Fig 4E) was 0.06383. For the same molecule, the Surface expression ([1]; Fig 4E) was 0.1099, the “Internalisation, +GIP” value ([1]; Fig S4C, AD293) was 59.0204 and the “Internalisation, GIP-only” value ([1]; Fig S4C, AD293) was 2.581. For the same molecule, the “Internalisation, Vehicle” value ([1]; Fig S4C, AD293) was 56.4393, the “+GIP internalisation (100 nM)” value ([2]; Fig 4G, GIP 100 nM) was 0.1101 and the “GIP-specific internalisation (100 nM)” value ([2]; Fig 4G, GIP 100 nM) was 0.004755. The “Constitutive internalisation (100 nM)” value ([2]; Fig 4G) was 0.1053, the “Internalisation, +GIP” value ([2]; Fig S4C, INS-1) was 49.4833 and the “Internalisation, GIP-only” value ([2]; Fig S4C, INS-1) was 2.12. For the same molecule, the “Internalisation, Vehicle” value ([2]; Fig S4C, INS-1) was 47.3633, the “AD293 100 pM cADDis” value ([3]; AD293, 100 pM) was 0.802 and the “AD293 100 nM cADDis” value ([3]; AD293, 100 nM) was 24.23. For the same molecule, the “AD293 100 pM HTRF” value ([4]; AD293, 100 pM) was 0.007216, the “AD293 100 nM HTRF” value ([4]; AD293, 100 nM) was 0.3648 and the “Surface SNAP-GIPR expression in pancreatic islets” value (shortened to “Surface SNAP-GIPR expression”) ([5]; replicate 1) was 0.1066. The “Surface SNAP-GIPR expression” value ([5]; replicate 2) was 0.6008, the “Surface SNAP-GIPR expression” value ([5]; replicate 3) was 0.01404 and the “Surface SNAP-GIPR expression” value ([5]; replicate 4) was -0.2745. For the same molecule, the “Surface SNAP-GIPR expression” value ([5]; replicate 5) was -0.1674, the “Insulin secretion, ratio G11 + GIP / G11” value ([6]; replicate 1) was 2.545 and the “Insulin secretion, ratio G11 + GIP / G11” value ([6]; replicate 2) was 0.8478. The “Insulin secretion, ratio G11 + GIP / G11” value ([6]; replicate 3) was 2.186 and the “Insulin secretion, ratio G11 + GIP / G11” value ([6]; replicate 4) was 1.083.
